In the supplement of paper PMC5998384:

Assays:
HeLa Kyoto [1] = experiment: solubility in G1/S (NP-40 vs SDS abundance) (log2 ratio); higher = more soluble; details: cell cycle stage: G1/S
HeLa Kyoto [2] = experiment: melting temperature (median over replicates), in situ; higher = more thermally stable
HeLa Kyoto [3] = experiment: solubility change mitosis vs G1/S (difference of NP-40 vs SDS log2 ratios) (log2 ratio difference); higher = more soluble in mitosis
HeLa Kyoto [4] = experiment: thermal stability score vs G1/S (z-score of summed log2 fold changes over temperatures); higher = more thermally stable than in G1/S
[5] = cell cycle stage: early G1 (4.5 h after nocodazole release)
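Throughout, for melting temperature (median over replicates), in situ: HeLa Kyoto cells synchronized by double thymidine or nocodazole block, proteins quantified by TMT10plex mass spectrometry, three independent biological replicates.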
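Throughout, for solubility change mitosis vs G1/S (difference of NP-40 vs SDS log2 ratios): synchronized HeLa Kyoto cells (double thymidine block for G1/S, nocodazole release for mitosis), protein amounts in NP-40 versus SDS lysates quantified by mass spectrometry, three biological replicates.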
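Throughout, for solubility in G1/S (NP-40 vs SDS abundance): HeLa Kyoto cells arrested at G1/S by double thymidine block, proteins quantified by TMT10plex mass spectrometry in mild NP-40 versus SDS extracts, three biological replicates.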
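Throughout, for thermal stability score vs G1/S (z-score of summed log2 fold changes over temperatures): synchronized HeLa Kyoto cells, proteins quantified by TMT10plex mass spectrometry, three biological replicates, mitosis taken 0.5 h after nocodazole release, G1/S directly after double thymidine block.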

Substance	solubility in G1/S (log2) (HeLa Kyoto [1])	melting temperature (HeLa Kyoto [2]; cell cycle stage: G1/S) [°C]	melting temperature (HeLa Kyoto [2]; cell cycle stage: mitosis) [°C]	solubility change mitosis (log2) (HeLa Kyoto [3])	thermal stability score (HeLa Kyoto [4]; [5])	thermal stability score (HeLa Kyoto [4]; cell cycle stage: mitosis)
MDAPRASAAKPPTGRKMKARAPPPPGKAATLHVHSDQKPPHDGALGSQQNLVRMKEALRASTMDVTVVLPSGLEKRSVLNGSHAMMDLLVELCLQNHLNPSHHALEIRSSETQQPLSFKPNTLIGTLNVHTVFLKEKVPEEKVKPGPPKVPEKSVRLVVNYLRTQKAVVRVSPEVPLQNILPVICAKCEVSPEHVVLLRDNIAGEELELSKSLNELGIKELYAWDNRRETFRKSSLGNDETDKEKKKFLGFFKVNKRSNSKGCLTTPNSPSMHSRSLTLGPSLSLGSISGVSVKSEMKKRRAPPPPGSGPPVQDKASEKVSLGSQIDLQKKKRRAPAPPPPQPPPPSPLIPNRTEDKEENRKSTMVSLPLGSGSHCSPDGAPQVLSEAEETVSVGSCFASEDTTEDSGVMSSPSDIVSLDSQQDSMKYKDKWATDQEDCSDQDLAGTPDLGPQKSPLWEKNGSENSHLRTEKAVTASNDEEDLLIAGEFRKTLAELDEDLEEMEDSYETDTSSLTSSIHGASNHCPQDAMIPHGDTDAIPVTFIGEVSDDPVDSGLFSNRNNNAGSFDSEGVASRRDSLAPLQAEHSQPHEKAREEVPALHPASHDVGKGIRVALSNISKDGNLMETAPRVTSFASNLHTDNLNAKVKDKVYGCADGERTQATERVNSQPVNEKDSNDKNAALAPTSWHQRGQNPGKSYRLKHGLTTYKIIPPKSEMRCYDRDVSLSTGAIKIDELGNLVSPHATGIRIISLSSSVPEAESQPIGKVREFWRCNSVEKHLGRPSESSARGPPSTPVPTQTQNPESRLQADPKPISPQQKSAHHEGRNPLGEGRNQPPTMGMGHVRVPAAHTTEVTFLKPQRRTSSQYVASAIAKRIGAPKVHADVVRPHGYAEKGYAGKAPVLAAPPVTVKDDRTSSPHSETQGWKDGAQWPCVTPPNNHGEDLAVGAPPRGEVIGPHRKLSTQDRPAAIHRSSCFSLVQSSQRDRVSVGQSCGFSGKQSTSSQEASSASEPRRAPDGTDPPPPHTSDTQACSRELVNGSVRAPGHGEPSHPPGGSGTESHILLEREEKPSVFSTDGNETDSIWPPSIFGPKKKFKPVVQRPVPKDTSLHSALMEAIHSAGGKDRLRKTAEHTGEGRPAKLSYTEAEGERSALLAAIRGHSGTCSLRKVASSASEELQSFRDAALSAQGSESPLLEDLGLLSPPAIPPPPPPPSQALSAPRTASRFSTGTLSNTADARQALMDAIRSGTGAARLRKVPLLV [COBL]	-0.423	49.1	49.8	0.177	1.3	1.18
MSASVVSVISRFLEEYLSSTPQRLKLLDAYLLYILLTGALQFGYCLLVGTFPFNSFLSGFISCVGSFILAVCLRIQINPQNKADFQGISPERAFADFLFASTILHLVVMNFVG [DAD1]	-0.0329	54.5	54.2	-0.257	0.505	-0.552
SAR1A	0.207	52	52.8	-0.239	2.01	1.85
CKAP5	0.0443	49.6	49.2	-0.078	-0.177	-0.509
MKSYTPYFILLWSAVGIAKAAKIIIVPPIMFESHMYIFKTLASALHERGHHTVFLLSEGRDIAPSNHYSLQRYPGIFNSTTSDAFLQSKMRNIFSGRLTAIELFDILDHYTKNCDLMVGNHALIQGLKKEKFDLLLVDPNDMCGFVIAHLLGVKYAVFSTGLWYPAEVGAPAPLAYVPEFNSLLTDRMNLLQRMKNTGVYLISRLGVSFLVLPKYERIMQKYNLLPEKSMYDLVHGSSLWMLCTDVALEFPRPTLPNVVYVGGILTKPASPLPEDLQRWVNGANEHGFVLVSFGAGVKYLSEDIANKLAGALGRLPQKVIWRFSGPKPKNLGNNTKLIEWLPQNDLLGHSKIKAFLSHGGLNSIFETIYHGVPVVGIPLFGDHYDTMTRVQAKGMGILLEWKTVTEKELYEALVKVINNPSYRQRAQKLSEIHKDQPGHPVNRTIYWIDYIIRHNGAHHLRAAVHQISFCQYFLLDIAFVLLLGAALLYFLLSWVTKFIYRKIKSLWSRNKHSTVNGHYHNGILNGKYKRNGHIKHEKKVK [UGT8]	-0.021	–	53.8	-0.0716	0.353	-0.0434
MAPWGKRLAGVRGVLLDISGVLYDSGAGGGTAIAGSVEAVARLKRSRLKVRFCTNESQKSRAELVGQLQRLGFDISEQEVTAPAPAACQILKEQGLRPYLLIHDGVRSEFDQIDTSNPNCVVIADAGESFSYQNMNNAFQVLMELEKPVLISLGKGRYYKETSGLMLDVGPYMKALEYACGIKAEVVGKPSPEFFKSALQAIGVEAHQAVMIGDDIVGDVGGAQRCGMRALQVRTGKFRPSDEHHPEVKADGYVDNLAEAVDLLLQHADK [LHPP]	0.392	56.5	55.5	0.0085	-1.67	-2.15
MDVFLMIRRHKTTIFTDAKESSTVFELKRIVEGILKRPPDEQRLYKDDQLLDDGKTLGECGFTSQTARPQAPATVGLAFRADDTFEALCIEPFSSPPELPDVMKPQDSGSSANEQAVQ [TCEB2]	0.109	52	51.8	0.00166	1.2	-0.75
ABCC2	-0.128	51.6	51.6	-0.0305	0.294	-0.626
MPSSPLRVAVVCSSNQNRSMEAHNILSKRGFSVRSFGTGTHVKLPGPAPDKPNVYDFKTTYDQMYNDLLRKDKELYTQNGILHMLDRNKRIKPRPERFQNCKDLFDLILTCEERVYDQVVEDLNSREQETCQPVHVVNVDIQDNHEEATLGAFLICELCQCIQHTEDMENEIDELLQEFEEKSGRTFLHTVCFY [SSU72]	0.4	48.1	49.4	-0.0234	0.263	-0.182
MATRSCREKAQKLNEQHQLILSKLLREEDNKYCADCEAKGPRWASWNIGVFICIRCAGIHRNLGVHISRVKSVNLDQWTAEQIQCMQDMGNTKARLLYEANLPENFRRPQTDQAVEFFIRDKYEKKKYYDKNAIAITNISSSDAPLQPLVSSPSLQAAVDKNKLEKEKEKKKEEKKREKEPEKPAKPLTAEKLQKKDQQLEPKKSTSPKKAAEPTVDLLGLDGPAVAPVTNGNTTVPPLNDDLDIFGPMISNPLPATVMPPAQGTPSAPAAATLSTVTSGDLDLFTEQTTKSEEVAKKQLSKDSILSLYGTGTIQQQSTPGVFMGPTNIPFTSQAPAAFQGFPSMGVPVPAAPGLIGNVMGQSPSMMVGMPMPNGFMGNAQTGVMPLPQNVVGPQGGMVGQMGAPQSKFGLPQAQQPQWSLSQMNQQMAGMSISSATPTAGFGQPSSTTAGWSGSSSGQTLSTQLWK [SMAP1]	-0.0223	51.2	51.3	-0.142	0.468	-0.266
UGGT2	-0.222	54	54.1	-0.15	2.37	4.53
MEEEDESRGKTEESGEDRGDGPPDRDPTLSPSAFILRAIQQAVGSSLQGDLPNDKDGSRCHGLRWRRCRSPRSEPRSQESGGTDTATVLDMATDSFLAGLVSVLDPPDTWVPSRLDLRPGESEDMLELVAEVRIGDRDPIPLPVPSLLPRLRAWRTGKTVSPQSNSSRPTCARHLTLGTGDGGPAPPPAPSSASSSPSPSPSSSSPSPPPPPPPPAPPAPPAPRFDIYDPFHPTDEAYSPPPAPEQKYDPFEPTGSNPSSSAGTPSPEEEEEEEEEEEEEEEDEEEEEGLSQSISRISETLAGIYDDNSLSQDFPGDESPRPDAQPTQPTPAPGTPPQVDSTRADGAMRRRVFVVGTEAEACREGKVSVEVVTAGGAALPPPLLPPGDSEIEEGEIVQPEEEPRLALSLFRPGGRAARPTPAASATPTAQPLPQPPAPRAPEGDDFLSLHAESDGEGALQVDLGEPAPAPPAADSRWGGLDLRRKILTQRRERYRQRSPSPAPAPAPAAAAGPPTRKKSRRERKRSGEAKEAASSSSGTQPAPPAPASPWDSKKHRSRDRKPGSHASSSARRRSRSRSRSRSTRRRSRSTDRRRGGSRRSRSREKRRRRRRSASPPPATSSSSSSRRERHRGKHRDGGGSKKKKKRSRSRGEKRSGDGSEKAPAPAPPPSGSTSCGDRDSRRRGAVPPSIQDLTDHDLFAIKRTITVGRLDKSDPRGPSPAPASSPKREVLYDSEGLSGEERGGKSSQKDRRRSGAASSSSSSREKGSRRKALDGGDRDRDRDRDRDRDRSSKKARPPKESAPSSGPPPKPPVSSGSGSSSSSSSCSSRKVKLQSKVAVLIREGVSSTTPAKDAASAGLGSIGVKFSRDRESRSPFLKPDERAPTEMAKAAPGSTKPKKTKVKAKAGAKKTKGTKGKTKPSKTRKKVRSGGGSGGSGGQVSLKKSKADSCSQAAGTKGAEETSWSGEERAAKVPSTPPPKAAPPPPALTPDSQTVDSSCKTPEVSFLPEEATEEAGVRGGAEEEEEEEEEEEEEEEEEEQQPATTTATSTAAAAPSTAPSAGSTAGDSGAEDGPASRVSQLPTLPPPMPWNLPAGVDCTTSGVLALTALLFKMEEANLASRAKAQELIQATNQILSHRKPPSSLGMTPAPVPTSLGLPPGPSSYLLPGSLPLGGCGSTPPTPTGLAATSDKREGSSSSEGRGDTDKYLKKLHTQERAVEEVKLAIKPYYQKKDITKEEYKDILRKAVHKICHSKSGEINPVKVSNLVRAYVQRYRYFRKHGRKPGDPPGPPRPPKEPGPPDKGGPGLPLPPL [SCAF1]	-1.69	49.5	50.2	1.41	-0.0585	1.29
MGIQTSPVLLASLGVGLVTLLGLAVGSYLVRRSRRPQVTLLDPNEKYLLRLLDKTTVSHNTKRFRFALPTAHHTLGLPVGKHIYLSTRIDGSLVIRPYTPVTSDEDQGYVDLVIKVYLKGVHPKFPEGGKMSQYLDSLKVGDVVEFRGPSGLLTYTGKGHFNIQPNKKSPPEPRVAKKLGMIAGGTGITPMLQLIRAILKVPEDPTQCFLLFANQTEKDIILREDLEELQARYPNRFKLWFTLDHPPKDWAYSKGFVTADMIREHLPAPGDDVLVLLCGPPPMVQLACHPNLDKLGYSQKMRFTY [CYB5R1]	0.339	54.1	55.3	-0.041	-0.825	-0.661
